Measured values as given in the supplement of paper PMC10567573.
± gives the standard deviation.

Assay: protein stability index of a GFP-peptide fusion (GPS, HEK-293T) (PSI 1-6); higher = more stable
[1] = treatment: DMSO, c terminus: a fixed tail appended
[2] = treatment: MLN4924 1 uM, 8 h, c terminus: a fixed tail appended
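Further: 24-mer peptide tiles fused after GFP, lentivirally expressed, FACS-sorted into six equal bins by GFP/DsRed ratio, decoded by Illumina sequencing, PSI is the read-weighted mean bin number.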

| Sequence | protein stability index [1] | protein stability index [2] | protein stability index (treatment: DMSO, c terminus: native) | protein stability index (treatment: MLN4924 1 uM, 8 h, c terminus: native) |
| --- | --- | --- | --- | --- |
| GPLVPRLAGMANHGSPQLGEGMFQ [TBX5] | 3.67 ± 0.26 | 3.75 ± 0.15 |  |  |
| GPSVSEPPGLPRVSAYVDTTADLD [SPATS1] | 5.16 ± 0.41 | 5.18 ± 0.25 |  |  |
| GQTVTIWAANAGVTASPPTDLIWK [LMNB1] | 2.37 ± 0.35 | 2.34 ± 0.32 |  |  |
| GRDWRHLPTITSELSGAPRCHTVP [PXN] | 3.44 ± 0.48 | 3.51 ± 0.17 |  |  |
| GSEENGRYFSLSLMSGALAVNQKI [PCDHGC5] | 2.49 ± 0.2 | 2.6 ± 0.23 |  |  |
| GSIMTVWLSTAPTEPLTHWYQVRC [CARM1] | 2.74 ± 0.99 | 2.84 ± 0.23 |  |  |
| GSPEQLQIPVTDSGRHILEDSCAE [SDE2] | 5.18 ± 0.27 | 5.5 ± 0.35 |  |  |
| GSQIHDQFILRVSPDLEWHAACLK [ISL2] | 2.3 ± 0.43 | 2.66 ± 0.54 |  |  |
| GSQLEDQALRGLEGYTWRVAQLED [ZSWIM9] | 3.98 ± 0.55 | 4.25 ± 0.2 |  |  |
| GSTLAMLQRLKEQQFVIAGVLVED [ZBED1] | 2.22 ± 0.46 | 2.1 ± 0.19 |  |  |
| GTAFDAETDSEMNSQESRSDLEDM [SMG5] | 5.63 ± 0.24 | 5.5 ± 0.49 |  |  |
| GVCMGLVAAACACGFTVAQIITSL [OR10K2] | 3.21 ± 0.34 | 3.04 ± 0.69 |  |  |
| GVMLTWPDGLMYQKFRNQFLSFSM [TMEM120A] | 2.89 ± 0.98 | 2.69 ± 0.43 |  |  |
| GVSSVDSAFSSRGSLSLSFEREPS [RIPK4] | 4.33 ± 0.77 | 4.8 ± 0.52 |  |  |
| GWSKGFIGMHREMQVNPISKRMGP [RHOBTB1] | 2.63 ± 0.32 | 2.61 ± 0.12 |  |  |
| GYSLADWVCLAYFTSGFNAAALDY [SPACA3] | 3.33 ± 0.44 | 2.98 ± 0.13 |  |  |
| HAACLKCAECSQYLDETCTCFVRD [ISL2] | 4.67 ± 0.22 | 4.83 ± 0.23 |  |  |
| HAAQGGPLLCPGCQGQPQGKAVVS [ELOA2] | 3.9 ± 0.36 | 4.09 ± 0.24 |  |  |
| HALATRASDYSKKSNVLKLKTADW [PSD2] | 3.13 ± 0.18 | 3.17 ± 0.17 |  |  |
| HCKAGLGRTGTLIACYVMKHYRFT [CDC14A] | 3.52 ± 0.52 | 2.76 ± 0.37 |  |  |
| HECILPFVQVKGNFARLQTCISEL [M1AP] | 2.21 ± 0.11 | 2.21 ± 0.13 |  |  |
| HESQQLATETQALAQRTQQDSTRT [TEKT4] | 5.41 ± 0.23 | 5.43 ± 0.074 |  |  |

| Sequence | protein stability index [1] | protein stability index [2] | protein stability index (treatment: DMSO, c terminus: native) | protein stability index (treatment: MLN4924 1 uM, 8 h, c terminus: native) |
| --- | --- | --- | --- | --- |
| HGPGHETPMTIPEFFRESVNRFGT [ACSBG2] | 3.54 ± 0.29 | 3.6 ± 0.13 |  |  |
| HGTKNVTNSSSLRLPRQNSDGGQK [WSB1] | 4.96 ± 0.2 | 4.87 ± 0.47 |  |  |
| HGVLSAEGFLFVFGGQDENKQTLS [GAN] | 2.43 ± 0.27 | 2.65 ± 0.073 |  |  |
| HHSHSGPEISRIIVDPTTGKRYCR [PLK2] | 4.08 ± 0.16 | 4.32 ± 0.17 |  |  |
| HIKEILITAGGENVPPIPVETLVK [ACSBG2] | 2.71 ± 0.38 | 2.88 ± 0.2 |  |  |
| HKVAPLVQSLCAKHGIEYQSKPLL [FADS1] | 2.68 ± 0.34 | 3 ± 0.17 |  |  |
| HLEYRFYKQLGSAGEGLPQVYYFG [CSNK1G1] | 2.2 ± 0.47 | 2.15 ± 0.68 |  |  |
| HLNRGNHEDHMVNLRYGFTKEVMN [PPEF2] | 2.99 ± 0.3 | 3.16 ± 0.42 |  |  |
| HLSSQQASGQSYSSREVFTSSSSS [KRT16] | 4.63 ± 0.21 | 4.58 ± 0.17 |  |  |
| HNCQLHRISFCADDKTDKRIFTFI [GULP1] | 2.61 ± 0.36 | 2.4 ± 0.52 |  |  |
| HNGKIYISGGVHNGEYVPWLYCYD [KLHL14] | 2.13 ± 0.68 | 2.32 ± 0.48 |  |  |
| HNIFLLGGSSTSERCLLNNSLWKK [NLN] | 2.39 ± 0.13 | 2.24 ± 0.39 |  |  |
| HNIVFGDYTWTEFDEPFLTRNVQS [TRIP13] | 2.63 ± 0.06 | 2.61 ± 0.32 |  |  |
| HPSGHWATCRLCGEQVGRGPGFHA [ZBED3] | 2.52 ± 0.069 | 3.05 ± 0.29 |  |  |
| HRVKLTNSTLDPHGHLILHSMHKY [TBX6] | 2.37 ± 0.35 | 2.71 ± 0.2 |  |  |
| HSEGRVEVYYDGQWGTVCDDDFSI [LOXL2] | 3.23 ± 0.33 | 3.56 ± 0.33 |  |  |
| HSEILKYFQSVTSNRWLMVKIFLI [STX5] | 2.32 ± 0.36 | 2.4 ± 0.43 |  |  |
| HSEVVEELVSADVIDLFDEQGLSA [RIPK4] | 5.02 ± 0.52 | 4.98 ± 0.52 |  |  |
| HSGQVTILKLEQENCTLVTTFRGH [WDFY2] | 2.35 ± 0.26 | 2.29 ± 0.28 |  |  |
| HTDSKYEHAIAEAQKNMYFKTRLK [ZNF396] | 3.8 ± 0.22 | 3.5 ± 0.32 |  |  |
| HYWELDVDNSCDWALGVCNNSWIR [TRIM43] | 2.25 ± 0.21 | 2.2 ± 0.34 |  |  |
| IADLFVADQRSRMLSIFYFAIPVG [SPNS1] | 3.08 ± 0.65 | 2.94 ± 0.41 |  |  |

| Sequence | protein stability index [1] | protein stability index [2] | protein stability index (treatment: DMSO, c terminus: native) | protein stability index (treatment: MLN4924 1 uM, 8 h, c terminus: native) |
| --- | --- | --- | --- | --- |
| IAIARLRGSDLKVLEVTEESIDFD [FBXO33] | 2.73 ± 0.3 | 2.77 ± 0.47 |  |  |
| IAPVLKLASHHNHFSQIVIFMLCT [OR10K2] | 3.25 ± 0.75 | 3.2 ± 0.83 |  |  |
| IASEPTNKHLFYAEDFSTMDEISE [MATN2] | 4.57 ± 0.27 | 4.59 ± 0.23 |  |  |
| ICDPGLTSFEPEALGNLVEGMDFH [CAMK2B] | 3.92 ± 0.23 | 4.07 ± 0.13 |  |  |
| ICGFLKERCFRGSSYPVCVSKVVK [OAS1] | 2.62 ± 0.31 | 2.13 ± 0.3 |  |  |
| IDEQDSYIQSRADTMQNIESTIVE [STX5] | 5.23 ± 0.31 | 5.14 ± 0.12 |  |  |
| IDKNTQLTLQVYREQADSCREQLD [TRIM14] | 4.58 ± 0.21 | 4.18 ± 0.79 |  |  |
| IENNKYGWFWVCPGGGDICMYRHA [ZC3H15] | 2.52 ± 0.32 | 2.15 ± 0.53 |  |  |
| IERMKQIYQQLSRYRGLGLLASVP [CRY1] | 2.3 ± 0.49 | 2.36 ± 0.35 |  |  |
| IFIARRSLLDELLEVDHIRTIYHM [SOAT1] | 2.8 ± 0.58 | 2.66 ± 0.75 |  |  |
| IFYDLVRQINRKTPVPGKARKKSS [RAP1B] | 2.47 ± 0.47 | 2.37 ± 0.4 |  |  |
| IGCGNFGELRLGKNLYTNEYVAIK [CSNK1G3] | 2.07 ± 0.18 | 2.12 ± 0.44 |  |  |
| IGPIHLNEIQCTGNEKSIIDCKFN [LOXL2] | 3.63 ± 0.15 | 3.67 ± 0.23 |  |  |
| IGVGLGFELQRLEFDLSPLNLDIG [AASDHPPT] | 2.3 ± 0.55 | 2.29 ± 0.24 |  |  |
| IHERTHERERLYPFSECGEAVSDS [ZNF263] | 4.81 ± 0.41 | 4.88 ± 0.22 |  |  |
| IISSDELNVRSEEQVFNAVMAWVK [KLHL20] | 2.28 ± 0.22 | 2.42 ± 0.32 |  |  |
| IIYVASNHFVWRLIPVPMATQIQQ [VPS39] | 3.19 ± 0.35 | 3.09 ± 0.65 |  |  |
| IKPPCIPNGKENFSGGTSLWQNI [CAMK2D] |  |  | 3.2 ± 0.13 | 3.2 ± 0.21 |
| IKSKKKLLQIIDTTLLKCYLHTNV [VPS39] | 3.04 ± 0.37 | 2.86 ± 0.52 |  |  |
| ILCNKTAYQEVFKPENISLRNKLR [SMG5] | 2.46 ± 0.24 | 2.77 ± 0.23 |  |  |
| ILDSLLFFYDCSNNPISEHFHPTV [TENT5C] | 3.15 ± 0.71 | 3.13 ± 0.68 |  |  |
